According to patent US20220112249A1 (published 2022):

Target: V1.1
Experiment: SPR

B1: CFH (fH67) (other)
chain: TLKPCDYPDIKHGGLYHENMRRPYFPVAVGKYYSYYCDEHFETPSGSYWDHIHCTQDGWSPAVPCLRKCYFPYLENGYNQNYGRKFVQGKSIDVACHPGYALPKAQTTVTCMENGWSPTPRCI
Kd: 3.6 nM
